The values below come from the Immune Epitope Database (IEDB).

The assay concerns the target HLA-A*02:01. Put plainly: IEDB peptide-MHC binding, purified MHC/direct/fluorescence; filed as Kd, often an IC50 or EC50 that approximates it; ≥ and ≤ were set here for values at or beyond the usual limits of such assays. The following applies: source organism: Mycobacterium tuberculosis H37Rv.

In general, Kd refers to the equilibrium constant for the complex coming apart. Read a high Kd as a looser complex. AIYDTMQYV gave a Kd of at most 1 nM.

As for ALDEGLLPV, the Kd was at most 1 nM. For the sequence ALLGGLRPV, the Kd was at most 1 nM. As to AMAGSIDLL, the Kd turned out to be 4 nM. GMFANRWII: the Kd amounted to 27 nM. The sequence HLDDVGFLV came in with a Kd of at most 1 nM. For KLQERLAKL, the Kd was 18 nM. In turn, LLYDGSFAV showed a Kd of at most 1 nM. For SLIDLLHKI, the Kd is at most 1 nM.

In the case of SLRNWIATL, the Kd turned out to be 66 nM. SLWKDGAPL showed a Kd of 5 nM. Sequence WLYPGAQNL had a Kd of at most 1 nM. On to YLLADTFTV, for which the Kd is at most 1 nM. Take YLPDPTVGV: the Kd is at most 1 nM. YVYPDNLPV had a Kd of 2 nM.
